From the supplement of paper PMC9112550, “Optimization of the antimicrobial peptide Bac7 by deep mutational scanning” (BMC Biology, 2022)

Test system: Escherichia coli TOP10
Test: shrunken log2 fold change of peptide-encoding DNA abundance (4.5 h post-induction vs induction); higher = less antimicrobial activity (less host growth inhibition)
Details: time post-induction: 4.5 h; library: site-saturation at positions 5, 18, 19, 20
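Further: peptides expressed intracellularly from a pBAD plasmid library in pooled LB shake-flask culture, induced with 0.3% L-arabinose, DNA abundance read by NGS, three biological replicates, DESeq2 with apeglm shrinkage.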

Sequence	shrunken log2 fold change
RRIRLRPPRLPRPRPRPPMQPRP	0.189
RRIRCRPPRLPRPRPRPGDYPRP	-0.081
RRIRTRPPRLPRPRPRPCDEPRP	-0.0429
RRIRIRPPRLPRPRPRPNGGPRP	-0.108
RRIRVRPPRLPRPRPRPSPCPRP	-0.145
RRIRMRPPRLPRPRPRPSPAPRP	1.83
RRIRKRPPRLPRPRPRPPRKPRP	0.821
RRIRMRPPRLPRPRPRPGHSPRP	0.182
RRIRNRPPRLPRPRPRPIRYPRP	-0.746
RRIRFRPPRLPRPRPRPRLTPRP	-0.212
RRIRNRPPRLPRPRPRPIPPPRP	-0.0301
RRIRDRPPRLPRPRPRPLLSPRP	0.447
RRIRGRPPRLPRPRPRPQNHPRP	-0.18
RRIRNRPPRLPRPRPRPQQPPRP	0.0468
RRIRWRPPRLPRPRPRPGGPPRP	0.367
RRIRERPPRLPRPRPRPAWGPRP	-0.00226
RRIRERPPRLPRPRPRPIQRPRP	0.146
RRIRLRPPRLPRPRPRPTCDPRP	-0.202
RRIRIRPPRLPRPRPRPESNPRP	0.0344
RRIRNRPPRLPRPRPRPDHLPRP	-0.0163
RRIRERPPRLPRPRPRPNFNPRP	-0.376
RRIRQRPPRLPRPRPRPLRQPRP	0.0855
RRIRYRPPRLPRPRPRPKQPPRP	0.102
RRIRRRPPRLPRPRPRPNPSPRP	0.215
RRIRSRPPRLPRPRPRPPHWPRP	0.5

Sequence	shrunken log2 fold change
RRIRMRPPRLPRPRPRPKPNPRP	0.954
RRIRERPPRLPRPRPRPTGVPRP	-0.129
RRIRKRPPRLPRPRPRPPRPPRP	1.34
RRIRARPPRLPRPRPRPMTIPRP	-0.113
RRIRNRPPRLPRPRPRPWWCPRP	-0.111
RRIRQRPPRLPRPRPRPNFFPRP	0.313
RRIRHRPPRLPRPRPRPNPEPRP	-0.00699
RRIRHRPPRLPRPRPRPNMRPRP	0.0719
RRIRHRPPRLPRPRPRPPDMPRP	0.0267
RRIRRRPPRLPRPRPRPLVQPRP	0.355
RRIRPRPPRLPRPRPRPVKMPRP	0.137
RRIRIRPPRLPRPRPRPCYKPRP	-0.049
RRIRHRPPRLPRPRPRPQAYPRP	-0.451
RRIRNRPPRLPRPRPRPWEFPRP	-0.00197
RRIRARPPRLPRPRPRPFSFPRP	-0.235
RRIRWRPPRLPRPRPRPMGRPRP	-0.012
RRIRYRPPRLPRPRPRPMQTPRP	-0.0135
RRIRTRPPRLPRPRPRPSVVPRP	-0.384
RRIRERPPRLPRPRPRPGMPPRP	-0.0315
RRIRPRPPRLPRPRPRPQHTPRP	0.769
RRIRYRPPRLPRPRPRPRFGPRP	0.345
RRIRLRPPRLPRPRPRPSPTPRP	1.06
RRIRSRPPRLPRPRPRPRLSPRP	0.00425
RRIRGRPPRLPRPRPRPNPHPRP	0.216
RRIRVRPPRLPRPRPRPNQYPRP	-0.864

Sequence	shrunken log2 fold change
RRIRQRPPRLPRPRPRPVSQPRP	0.00815
RRIRRRPPRLPRPRPRPQQKPRP	0.011
RRIRVRPPRLPRPRPRPYQKPRP	-0.0384
RRIRYRPPRLPRPRPRPSVDPRP	-0.61
RRIRLRPPRLPRPRPRPLHAPRP	0.261
RRIRTRPPRLPRPRPRPARQPRP	0.263
RRIRVRPPRLPRPRPRPRMMPRP	0.0121
RRIRRRPPRLPRPRPRPWADPRP	-0.143
RRIRRRPPRLPRPRPRPPHAPRP	1.52
RRIRERPPRLPRPRPRPPVTPRP	-0.152
RRIRRRPPRLPRPRPRPGPPPRP	1.93
RRIRCRPPRLPRPRPRPNQYPRP	-0.92
RRIRVRPPRLPRPRPRPTHYPRP	-0.0832
RRIRIRPPRLPRPRPRPASDPRP	-0.077
RRIRYRPPRLPRPRPRPPEQPRP	0.357
RRIRLRPPRLPRPRPRPFDGPRP	-0.00197
RRIRIRPPRLPRPRPRPHRVPRP	-0.24
RRIRWRPPRLPRPRPRPYNNPRP	-0.991
RRIRNRPPRLPRPRPRPPECPRP	0.015
RRIRIRPPRLPRPRPRPNSCPRP	-0.184
RRIRVRPPRLPRPRPRPPNIPRP	-0.475
RRIRGRPPRLPRPRPRPPGFPRP	0.484
RRIRMRPPRLPRPRPRPTSIPRP	-0.0517
RRIRCRPPRLPRPRPRPPAWPRP	0.692
RRIRLRPPRLPRPRPRPNMKPRP	-0.173

Sequence	shrunken log2 fold change
RRIRDRPPRLPRPRPRPSQRPRP	-0.0409
RRIRPRPPRLPRPRPRPGRLPRP	-0.0937
RRIRLRPPRLPRPRPRPMLGPRP	0.0421
RRIRFRPPRLPRPRPRPMDHPRP	-0.131
RRIRHRPPRLPRPRPRPPKKPRP	-0.0115
RRIRVRPPRLPRPRPRPCKNPRP	-0.0206
RRIRSRPPRLPRPRPRPKMVPRP	-0.309
RRIRMRPPRLPRPRPRPKWNPRP	0.523
RRIRCRPPRLPRPRPRPYWVPRP	-0.528
RRIRARPPRLPRPRPRPQTAPRP	0.188
RRIRFRPPRLPRPRPRPSAYPRP	-0.791
RRIRMRPPRLPRPRPRPPQFPRP	0.0882
RRIRHRPPRLPRPRPRPWTWPRP	-0.00897
RRIRLRPPRLPRPRPRPHVMPRP	-0.266
RRIRKRPPRLPRPRPRPQQCPRP	-0.371
RRIRVRPPRLPRPRPRPIYSPRP	-0.203
RRIRWRPPRLPRPRPRPFRVPRP	-0.0169
RRIRDRPPRLPRPRPRPRWNPRP	0.0976
RRIRFRPPRLPRPRPRPWQMPRP	0.053
RRIRTRPPRLPRPRPRPRFVPRP	-0.279
RRIRPRPPRLPRPRPRPHELPRP	-0.0456
RRIRARPPRLPRPRPRPVFFPRP	0.448
RRIRLRPPRLPRPRPRPEGNPRP	-0.149
RRIRMRPPRLPRPRPRPFKYPRP	-0.164
RRIRERPPRLPRPRPRPITSPRP	0.0102

Sequence	shrunken log2 fold change
RRIRTRPPRLPRPRPRPWEGPRP	0.0154
RRIRTRPPRLPRPRPRPLSFPRP	-0.124
RRIRPRPPRLPRPRPRPVVTPRP	-0.207
RRIRNRPPRLPRPRPRPFECPRP	-0.000687
RRIRERPPRLPRPRPRPRFTPRP	1.87
RRIRGRPPRLPRPRPRPSLYPRP	0.189
RRIRHRPPRLPRPRPRPGSEPRP	0.176
RRIRQRPPRLPRPRPRPGLKPRP	0.0245
RRIRHRPPRLPRPRPRPPRDPRP	0.346
RRIRIRPPRLPRPRPRPESPPRP	-0.135
RRIRLRPPRLPRPRPRPTALPRP	-0.134
RRIRFRPPRLPRPRPRPPHIPRP	-0.21
RRIRHRPPRLPRPRPRPINTPRP	-0.249
RRIRERPPRLPRPRPRPTFLPRP	-0.724
RRIRVRPPRLPRPRPRPRWFPRP	-0.0978
RRIRMRPPRLPRPRPRPEKEPRP	-0.0085
RRIRARPPRLPRPRPRPMWWPRP	0.166
RRIRKRPPRLPRPRPRPINRPRP	-0.159
RRIRARPPRLPRPRPRPIPEPRP	0.0265
RRIRFRPPRLPRPRPRPWQTPRP	-0.0222
RRIRFRPPRLPRPRPRPMKDPRP	-0.47
RRIRQRPPRLPRPRPRPCSCPRP	0.0297
RRIRCRPPRLPRPRPRPDHEPRP	-0.144
RRIRGRPPRLPRPRPRPEGMPRP	1.34
RRIRGRPPRLPRPRPRPAKAPRP	0.233

Sequence	shrunken log2 fold change
RRIRQRPPRLPRPRPRPAQWPRP	0.166
RRIRSRPPRLPRPRPRPQASPRP	0.552
RRIRWRPPRLPRPRPRPATNPRP	0.317
RRIRWRPPRLPRPRPRPGNQPRP	-0.225
RRIRQRPPRLPRPRPRPNIFPRP	-0.496
RRIRSRPPRLPRPRPRPTNIPRP	-0.434
RRIRIRPPRLPRPRPRPFGEPRP	-0.202
RRIRERPPRLPRPRPRPHARPRP	0.198
RRIRARPPRLPRPRPRPYLYPRP	-0.312
RRIRPRPPRLPRPRPRPFDPPRP	-0.0325
RRIRQRPPRLPRPRPRPEVTPRP	-0.0614
RRIRHRPPRLPRPRPRPNAAPRP	0.299
RRIRIRPPRLPRPRPRPFMRPRP	0.0516
RRIRERPPRLPRPRPRPISWPRP	-0.246
RRIRHRPPRLPRPRPRPFCIPRP	-0.538
RRIRTRPPRLPRPRPRPGQSPRP	-0.267
RRIRIRPPRLPRPRPRPCTDPRP	-0.143
RRIRERPPRLPRPRPRPRFCPRP	-0.0399
RRIRFRPPRLPRPRPRPDPPPRP	0.37
RRIRHRPPRLPRPRPRPHMHPRP	-0.687
RRIRDRPPRLPRPRPRPEFFPRP	0.896
RRIRHRPPRLPRPRPRPNRGPRP	-0.123
RRIRQRPPRLPRPRPRPYFWPRP	-0.101
RRIRRRPPRLPRPRPRPVTCPRP	-0.108
RRIRFRPPRLPRPRPRPHWSPRP	-0.54
